The target of this assay is Recombinant CdaA fragment spanning residues 88-273 (CdaA_(88-273)), Leptospira interrogans LIC10844 (Leptospira interrogans serovar Copenhageni strain Fiocruz L1-130). Put plainly: SEC; TSKgel G4000SWXL column, PBS as mobile phase, 1.0 mL min^-1; 50 µg of protein injected; MW estimated from a standard curve of 15-600 kDa protein standards.

The source of these data is publication PMC12974146.

Usually stoichiometry N stands for the number of molecules, sites or subunits per partner or assembly. As for “Recombinant CdaA fragment spanning residues 88-273 (CdaA_(88-273)), Leptospira interrogans LIC10844 (domain or fragment)”, the stoichiometry N is 2.
